Results: US20160159865A1 (CHILDREN S HOSPITAL AND RESEARCH CENTER AT OAKLAND, published 2016)

Molecular target: T1, human factor H (human, UniProt P08603 19-1231)
T1 construct: Purified human factor H was used in the ELISA; also called fH; human fH
Test: ELISA, fHbp (2 µg/ml) on plate, human factor H titrated

T1 sequence (P08603 19-1231 Y402H/T493R limits assumed): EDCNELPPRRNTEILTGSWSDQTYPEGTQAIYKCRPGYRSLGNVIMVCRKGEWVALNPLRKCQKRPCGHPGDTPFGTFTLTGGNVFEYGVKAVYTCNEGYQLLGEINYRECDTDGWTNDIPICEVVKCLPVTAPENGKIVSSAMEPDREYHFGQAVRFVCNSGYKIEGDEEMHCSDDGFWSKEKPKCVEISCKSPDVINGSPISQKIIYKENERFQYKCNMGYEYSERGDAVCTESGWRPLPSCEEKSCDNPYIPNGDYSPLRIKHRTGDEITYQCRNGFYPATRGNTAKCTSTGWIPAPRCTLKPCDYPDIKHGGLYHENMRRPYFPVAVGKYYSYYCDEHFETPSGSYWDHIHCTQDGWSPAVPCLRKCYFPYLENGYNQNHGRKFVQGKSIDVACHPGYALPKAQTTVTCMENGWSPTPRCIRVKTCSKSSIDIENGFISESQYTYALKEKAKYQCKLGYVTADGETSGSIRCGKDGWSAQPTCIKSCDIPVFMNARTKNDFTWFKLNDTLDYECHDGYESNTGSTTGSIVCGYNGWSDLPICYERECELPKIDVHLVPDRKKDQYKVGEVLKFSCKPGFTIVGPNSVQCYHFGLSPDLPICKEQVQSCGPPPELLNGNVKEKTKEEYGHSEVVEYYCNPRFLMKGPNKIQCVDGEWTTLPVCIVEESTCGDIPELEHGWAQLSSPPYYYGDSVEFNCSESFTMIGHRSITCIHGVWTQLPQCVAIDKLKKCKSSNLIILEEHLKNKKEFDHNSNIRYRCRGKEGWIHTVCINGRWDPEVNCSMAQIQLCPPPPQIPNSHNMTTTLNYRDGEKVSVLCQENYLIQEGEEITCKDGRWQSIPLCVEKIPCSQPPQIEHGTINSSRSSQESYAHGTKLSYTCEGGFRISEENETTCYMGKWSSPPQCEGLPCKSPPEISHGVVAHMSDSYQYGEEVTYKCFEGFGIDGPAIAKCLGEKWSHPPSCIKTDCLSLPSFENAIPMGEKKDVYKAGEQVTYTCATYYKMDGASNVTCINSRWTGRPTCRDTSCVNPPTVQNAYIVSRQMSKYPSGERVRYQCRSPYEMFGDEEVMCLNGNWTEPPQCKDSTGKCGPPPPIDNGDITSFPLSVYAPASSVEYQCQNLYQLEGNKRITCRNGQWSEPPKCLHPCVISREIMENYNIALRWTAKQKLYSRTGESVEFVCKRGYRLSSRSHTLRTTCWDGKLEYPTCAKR

B1: fHbp ID 79 H223R mutant (other)
chain: CSSGGGGSGSGGVAADIGTGLADALTTPLDHKDKGLKSLTLEDSIPQNGTLTLSAQGAEKTFKAGDKDNSLNTGKLKNDKISRFDFVQKIEVDGQTITLASGEFQIYKQDHSAVVALQIEKINNPDKIDSLINQRSFLVSGLGGEHTAFNQLPGGKAEYHGKAFSSDDAGGKLTYTIDFAAKQGHGKIEHLKTPEQNVELASAELKADEKSHAVILGDTRYGSEEKGTYRLALFGDRAQEIAGSATVKIGEKVHEIGIAGKQ
notes: Purified recombinant mutant
binding result: no binding (tested: human factor H 0.0012 to 20 µg/ml)
